Results from publication PMC2785718, “Structure/function studies of dogfish α-crystallin, comparison with bovine α-crystallin” (Molecular Vision, 2009).

T1: bovine αB-crystallin (bovine (endogenous in lens), UniProt P02510 1-175)
T1 construct: αB-crystallin polypeptide of bovine lens α-crystallin; native subunit, not separated from αA-crystallin; Native polypeptide from lens; also called bovine αB-crystallin polypeptide
T1 sequence (looked up): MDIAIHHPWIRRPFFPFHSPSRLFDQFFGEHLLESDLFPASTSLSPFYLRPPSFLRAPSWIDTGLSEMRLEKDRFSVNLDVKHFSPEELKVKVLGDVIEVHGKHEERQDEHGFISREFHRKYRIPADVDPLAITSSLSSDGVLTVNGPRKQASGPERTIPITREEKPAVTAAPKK

T2: dogfish αB-crystallin (spiny dogfish (endogenous in lens), UniProt P02512 1-177)
T2 construct: αB-crystallin polypeptide of spiny dogfish lens α-crystallin; native subunit, not separated from αA-crystallin; tryptophan at positions 9, 49 and 63; Native polypeptide from lens; It accounts for >80% of dogfish α-crystallin; also called αB polypeptide; αB subunit
T2 sequence (looked up): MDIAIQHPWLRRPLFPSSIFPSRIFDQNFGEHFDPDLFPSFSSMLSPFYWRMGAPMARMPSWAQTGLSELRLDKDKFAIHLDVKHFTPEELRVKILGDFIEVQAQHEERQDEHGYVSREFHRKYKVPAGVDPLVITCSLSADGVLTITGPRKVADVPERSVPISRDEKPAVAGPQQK


Key:
bovine αB-crystallin = target: T1, bovine αB-crystallin; assay: SEC; gel filtration of lens extract on Sephacryl S300 in phosphate buffered saline with sodium azide, pH 7.2, room temperature; central 50% of the α-crystallin peak rechromatographed; size by comparison with known proteins; subunits of the isolated native hetero-oligomer by SDS-PAGE (only α-crystallin polypeptides present); conditions: both partners purified
dogfish αB-crystallin = target: T2, dogfish αB-crystallin; assay: as above; conditions: both partners purified

binding result (bovine αB-crystallin)	stoichiometry N (dogfish αB-crystallin)	Binder
binds	–	bovine αA-crystallin (natural protein, bovine (endogenous in lens), UniProt P02470 1-173, looked up, αA-crystallin polypeptide of bovine lens α-crystallin; native subunit, not separated from αB-crystallin; Native polypeptide from lens; also called bovine αA chain; bovine αA-crystallin subunit) MDIAIQHPWFKRTLGPFYPSRLFDQFFGEGLFEYDLLPFLSSTISPYYRQSLFRTVLDSGISEVRSDRDKFVIFLDVKHFSPEDLTVKVQEDFVEIHGKHNERQDDHGYISREFHRRYRLPSNVDQSALSCSLSADGMLTFSGPKIPSGVDAGHSERAIPVSREEKPSSAPSS
–	~0.2 αA:αB	dogfish αA-crystallin (natural protein, spiny dogfish (endogenous in lens), UniProt P02509 1-177, looked up, αA-crystallin polypeptide of spiny dogfish lens α-crystallin; native subunit, not separated from αB-crystallin; tryptophan at positions 9 and 154; Native polypeptide from lens; also called αA chain; αA-crystallin subunit) MDLAIQYPWFRRSLGSFYPSRLFDQFFGEGLFDYDLFPFFSSTISPYYRQSVFRNFLDSGISEVRSEKDRFMINLNVKHFSPEELSVKIVDDYVEIHGKHAERQEDQGRVSREFHRTYHLPSNLNESAIACSLSNEGLLTLCCPKTRPGDDSNWQDRPIPVSREEKQGTQPEIRADP
